Experimental data published in US20140087995A1 (published 2014).
Numbered stars: 1 amine (or outer) side, 2 acyl side, 3 side chain; on linkers, the order of the positions; unused ones are H or OH. Bridge positions count the residues as written; N and C are the ends. Side chains are listed from the residue outwards. Ends that are not written are not given here. * marks the point of attachment. C20 diacid = O=C(O)CCCCCCCCCCCCCCCCCCC(=O)*; γGlu = O=C(O)[C@H](CCC(=O)[*:2])N[*:1]; AEEA = NCCOCCOCC(=O)O

T1: human amylin 3(a) receptor (human calcitonin receptor co-expressed with RAMP-3) (human, UniProt P30988 25-474; O60896 24-148, limits assumed)
T1 sequence (looked up) 1: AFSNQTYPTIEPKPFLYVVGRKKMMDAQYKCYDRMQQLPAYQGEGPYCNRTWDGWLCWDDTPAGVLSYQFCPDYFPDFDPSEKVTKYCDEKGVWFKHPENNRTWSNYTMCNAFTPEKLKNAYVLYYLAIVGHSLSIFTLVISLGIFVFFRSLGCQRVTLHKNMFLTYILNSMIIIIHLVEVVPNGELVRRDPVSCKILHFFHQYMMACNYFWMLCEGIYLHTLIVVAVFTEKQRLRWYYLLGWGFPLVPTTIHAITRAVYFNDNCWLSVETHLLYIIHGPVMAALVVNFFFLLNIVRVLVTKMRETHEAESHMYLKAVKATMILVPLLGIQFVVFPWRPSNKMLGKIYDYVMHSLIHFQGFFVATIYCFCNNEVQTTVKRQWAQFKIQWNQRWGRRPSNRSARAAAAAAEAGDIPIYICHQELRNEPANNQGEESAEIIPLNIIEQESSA
T1 sequence (looked up) 2: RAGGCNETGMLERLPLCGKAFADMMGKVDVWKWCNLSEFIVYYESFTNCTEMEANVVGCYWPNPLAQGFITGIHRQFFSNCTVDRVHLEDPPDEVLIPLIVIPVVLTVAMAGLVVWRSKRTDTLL

T2: human calcitonin receptor (human, UniProt P30988 25-474)
T2 sequence (looked up): T1 sequence (looked up) 1

B1: N^ε1-[(4S)-4-carboxy-4-[[(4S)-4-carboxy-4-(19-carboxynonadecanoylamino)butanoyl]amino]butanoyl]-[Glu14,Arg17,Pro21,Pro27,His34]-h-amylin (peptide)
peptide: K([γGlu-γGlu-C20 diacid])CNTATCATQRLAEFLRHSSPNFGAIPSSTNVGHNTY-NH2
modifications: disulfide 2-7; N-terminus assumed
SMILES: CC[C@H](C)[C@H](NC(=O)[C@H](C)NC(=O)CNC(=O)[C@H](Cc1ccccc1)NC(=O)[C@H](CC(N)=O)NC(=O)[C@@H]1CCCN1C(=O)[C@H](CO)NC(=O)[C@H](CO)NC(=O)[C@H](Cc1c[nH]cn1)NC(=O)[C@H](CCCNC(=N)N)NC(=O)[C@H](CC(C)C)NC(=O)[C@H](Cc1ccccc1)NC(=O)[C@H](CCC(=O)O)NC(=O)[C@H](C)NC(=O)[C@H](CC(C)C)NC(=O)[C@H](CCCNC(=N)N)NC(=O)[C@H](CCC(N)=O)NC(=O)[C@@H](NC(=O)[C@H](C)NC(=O)[C@@H]1CSSC[C@H](NC(=O)[C@@H](N)CCCCNC(=O)CC[C@H](NC(=O)CC[C@H](NC(=O)CCCCCCCCCCCCCCCCCCC(=O)O)C(=O)O)C(=O)O)C(=O)N[C@@H](CC(N)=O)C(=O)N[C@@H]([C@@H](C)O)C(=O)N[C@@H](C)C(=O)N[C@@H]([C@@H](C)O)C(=O)N1)[C@@H](C)O)C(=O)N1CCC[C@H]1C(=O)N[C@@H](CO)C(=O)N[C@@H](CO)C(=O)N[C@H](C(=O)N[C@@H](CC(N)=O)C(=O)N[C@H](C(=O)NCC(=O)N[C@@H](Cc1c[nH]cn1)C(=O)N[C@@H](CC(N)=O)C(=O)N[C@H](C(=O)N[C@@H](Cc1ccc(O)cc1)C(N)=O)[C@@H](C)O)C(C)C)[C@@H](C)O
notes: also called compound 87
B2: N^ε1-[2-[2-[2-(19-carboxynonadecanoylamino)ethoxy]ethoxy]acetyl]-[Arg17,Pro21,Pro27,His34]-h-amylin (peptide)
peptide: K([AEEA-C20 diacid])CNTATCATQRLANFLRHSSPNFGAIPSSTNVGHNTY-NH2
modifications: disulfide 2-7; N-terminus assumed
SMILES: CC[C@H](C)[C@H](NC(=O)[C@H](C)NC(=O)CNC(=O)[C@H](Cc1ccccc1)NC(=O)[C@H](CC(N)=O)NC(=O)[C@@H]1CCCN1C(=O)[C@H](CO)NC(=O)[C@H](CO)NC(=O)[C@H](Cc1c[nH]cn1)NC(=O)[C@H](CCCNC(=N)N)NC(=O)[C@H](CC(C)C)NC(=O)[C@H](Cc1ccccc1)NC(=O)[C@H](CC(N)=O)NC(=O)[C@H](C)NC(=O)[C@H](CC(C)C)NC(=O)[C@H](CCCNC(=N)N)NC(=O)[C@H](CCC(N)=O)NC(=O)[C@@H](NC(=O)[C@H](C)NC(=O)[C@@H]1CSSC[C@H](NC(=O)[C@@H](N)CCCCNC(=O)COCCOCCNC(=O)CCCCCCCCCCCCCCCCCCC(=O)O)C(=O)N[C@@H](CC(N)=O)C(=O)N[C@@H]([C@@H](C)O)C(=O)N[C@@H](C)C(=O)N[C@@H]([C@@H](C)O)C(=O)N1)[C@@H](C)O)C(=O)N1CCC[C@H]1C(=O)N[C@@H](CO)C(=O)N[C@@H](CO)C(=O)N[C@H](C(=O)N[C@@H](CC(N)=O)C(=O)N[C@H](C(=O)NCC(=O)N[C@@H](Cc1c[nH]cn1)C(=O)N[C@@H](CC(N)=O)C(=O)N[C@H](C(=O)N[C@@H](Cc1ccc(O)cc1)C(N)=O)[C@@H](C)O)C(C)C)[C@@H](C)O
notes: also called compound 91
B3: N^ε1-[2-[2-[2-(19-carboxynonadecanoylamino)ethoxy]ethoxy]acetyl]-[His14,Arg17,Pro21,Pro27]-h-amylin (peptide)
peptide: K([AEEA-C20 diacid])CNTATCATQRLAHFLRHSSPNFGAIPSSTNVGSNTY-NH2
modifications: disulfide 2-7; N-terminus assumed
SMILES: CC[C@H](C)[C@H](NC(=O)[C@H](C)NC(=O)CNC(=O)[C@H](Cc1ccccc1)NC(=O)[C@H](CC(N)=O)NC(=O)[C@@H]1CCCN1C(=O)[C@H](CO)NC(=O)[C@H](CO)NC(=O)[C@H](Cc1c[nH]cn1)NC(=O)[C@H](CCCNC(=N)N)NC(=O)[C@H](CC(C)C)NC(=O)[C@H](Cc1ccccc1)NC(=O)[C@H](Cc1c[nH]cn1)NC(=O)[C@H](C)NC(=O)[C@H](CC(C)C)NC(=O)[C@H](CCCNC(=N)N)NC(=O)[C@H](CCC(N)=O)NC(=O)[C@@H](NC(=O)[C@H](C)NC(=O)[C@@H]1CSSC[C@H](NC(=O)[C@@H](N)CCCCNC(=O)COCCOCCNC(=O)CCCCCCCCCCCCCCCCCCC(=O)O)C(=O)N[C@@H](CC(N)=O)C(=O)N[C@@H]([C@@H](C)O)C(=O)N[C@@H](C)C(=O)N[C@@H]([C@@H](C)O)C(=O)N1)[C@@H](C)O)C(=O)N1CCC[C@H]1C(=O)N[C@@H](CO)C(=O)N[C@@H](CO)C(=O)N[C@H](C(=O)N[C@@H](CC(N)=O)C(=O)N[C@H](C(=O)NCC(=O)N[C@@H](CO)C(=O)N[C@@H](CC(N)=O)C(=O)N[C@H](C(=O)N[C@@H](Cc1ccc(O)cc1)C(N)=O)[C@@H](C)O)C(C)C)[C@@H](C)O
notes: also called compound 90
B4: N^ε1-[2-[2-[2-[[2-[2-[2-[[(4S)-4-carboxy-4-(19-carboxynonadecanoylamino)butanoyl]amino]ethoxy]ethoxy]acetyl]amino]ethoxy]ethoxy]acetyl]-[Arg17,Pro21,Pro27,Arg34 … (peptide)
peptide: K([AEEA-AEEA-γGlu-C20 diacid])CNTATCATQRLANFLRHSSPNFGAIPSSTNVGRNTY-NH2
modifications: disulfide 2-7; N-terminus assumed
SMILES: CC[C@H](C)[C@H](NC(=O)[C@H](C)NC(=O)CNC(=O)[C@H](Cc1ccccc1)NC(=O)[C@H](CC(N)=O)NC(=O)[C@@H]1CCCN1C(=O)[C@H](CO)NC(=O)[C@H](CO)NC(=O)[C@H](Cc1c[nH]cn1)NC(=O)[C@H](CCCNC(=N)N)NC(=O)[C@H](CC(C)C)NC(=O)[C@H](Cc1ccccc1)NC(=O)[C@H](CC(N)=O)NC(=O)[C@H](C)NC(=O)[C@H](CC(C)C)NC(=O)[C@H](CCCNC(=N)N)NC(=O)[C@H](CCC(N)=O)NC(=O)[C@@H](NC(=O)[C@H](C)NC(=O)[C@@H]1CSSC[C@H](NC(=O)[C@@H](N)CCCCNC(=O)COCCOCCNC(=O)COCCOCCNC(=O)CC[C@H](NC(=O)CCCCCCCCCCCCCCCCCCC(=O)O)C(=O)O)C(=O)N[C@@H](CC(N)=O)C(=O)N[C@@H]([C@@H](C)O)C(=O)N[C@@H](C)C(=O)N[C@@H]([C@@H](C)O)C(=O)N1)[C@@H](C)O)C(=O)N1CCC[C@H]1C(=O)N[C@@H](CO)C(=O)N[C@@H](CO)C(=O)N[C@H](C(=O)N[C@@H](CC(N)=O)C(=O)N[C@H](C(=O)NCC(=O)N[C@@H](CCCNC(=N)N)C(=O)N[C@@H](CC(N)=O)C(=O)N[C@H](C(=O)N[C@@H](Cc1ccc(O)cc1)C(N)=O)[C@@H](C)O)C(C)C)[C@@H](C)O
notes: also called compound 95
B5: N^ε1-[2-[2-[2-[[2-[2-[2-[[(4S)-4-carboxy-4-(19-carboxynonadecanoylamino)butanoyl]amino]ethoxy]ethoxy]acetyl]amino]ethoxy]ethoxy]acetyl]-[Arg17,Pro21,Pro27,His34 … (peptide)
peptide: K([AEEA-AEEA-γGlu-C20 diacid])CNTATCATQRLANFLRHSSPNFGAIPSSTNVGHNTY-NH2
modifications: disulfide 2-7; N-terminus assumed
SMILES: CC[C@H](C)[C@H](NC(=O)[C@H](C)NC(=O)CNC(=O)[C@H](Cc1ccccc1)NC(=O)[C@H](CC(N)=O)NC(=O)[C@@H]1CCCN1C(=O)[C@H](CO)NC(=O)[C@H](CO)NC(=O)[C@H](Cc1c[nH]cn1)NC(=O)[C@H](CCCNC(=N)N)NC(=O)[C@H](CC(C)C)NC(=O)[C@H](Cc1ccccc1)NC(=O)[C@H](CC(N)=O)NC(=O)[C@H](C)NC(=O)[C@H](CC(C)C)NC(=O)[C@H](CCCNC(=N)N)NC(=O)[C@H](CCC(N)=O)NC(=O)[C@@H](NC(=O)[C@H](C)NC(=O)[C@@H]1CSSC[C@H](NC(=O)[C@@H](N)CCCCNC(=O)COCCOCCNC(=O)COCCOCCNC(=O)CC[C@H](NC(=O)CCCCCCCCCCCCCCCCCCC(=O)O)C(=O)O)C(=O)N[C@@H](CC(N)=O)C(=O)N[C@@H]([C@@H](C)O)C(=O)N[C@@H](C)C(=O)N[C@@H]([C@@H](C)O)C(=O)N1)[C@@H](C)O)C(=O)N1CCC[C@H]1C(=O)N[C@@H](CO)C(=O)N[C@@H](CO)C(=O)N[C@H](C(=O)N[C@@H](CC(N)=O)C(=O)N[C@H](C(=O)NCC(=O)N[C@@H](Cc1c[nH]cn1)C(=O)N[C@@H](CC(N)=O)C(=O)N[C@H](C(=O)N[C@@H](Cc1ccc(O)cc1)C(N)=O)[C@@H](C)O)C(C)C)[C@@H](C)O
notes: also called compound 97
B6: N^ε1-[2-[2-[2-[[2-[2-[2-[[(4S)-4-carboxy-4-(19-carboxynonadecanoylamino)butanoyl]amino]ethoxy]ethoxy]acetyl]amino]ethoxy]ethoxy]acetyl]-[Arg17,Pro21,Pro27,Pro31 … (peptide)
peptide: K([AEEA-AEEA-γGlu-C20 diacid])CNTATCATQRLANFLRHSSPNFGAIPSSTPVGSNTY-NH2
modifications: disulfide 2-7; N-terminus assumed
SMILES: CC[C@H](C)[C@H](NC(=O)[C@H](C)NC(=O)CNC(=O)[C@H](Cc1ccccc1)NC(=O)[C@H](CC(N)=O)NC(=O)[C@@H]1CCCN1C(=O)[C@H](CO)NC(=O)[C@H](CO)NC(=O)[C@H](Cc1c[nH]cn1)NC(=O)[C@H](CCCNC(=N)N)NC(=O)[C@H](CC(C)C)NC(=O)[C@H](Cc1ccccc1)NC(=O)[C@H](CC(N)=O)NC(=O)[C@H](C)NC(=O)[C@H](CC(C)C)NC(=O)[C@H](CCCNC(=N)N)NC(=O)[C@H](CCC(N)=O)NC(=O)[C@@H](NC(=O)[C@H](C)NC(=O)[C@@H]1CSSC[C@H](NC(=O)[C@@H](N)CCCCNC(=O)COCCOCCNC(=O)COCCOCCNC(=O)CC[C@H](NC(=O)CCCCCCCCCCCCCCCCCCC(=O)O)C(=O)O)C(=O)N[C@@H](CC(N)=O)C(=O)N[C@@H]([C@@H](C)O)C(=O)N[C@@H](C)C(=O)N[C@@H]([C@@H](C)O)C(=O)N1)[C@@H](C)O)C(=O)N1CCC[C@H]1C(=O)N[C@@H](CO)C(=O)N[C@@H](CO)C(=O)N[C@H](C(=O)N1CCC[C@H]1C(=O)N[C@H](C(=O)NCC(=O)N[C@@H](CO)C(=O)N[C@@H](CC(N)=O)C(=O)N[C@H](C(=O)N[C@@H](Cc1ccc(O)cc1)C(N)=O)[C@@H](C)O)C(C)C)[C@@H](C)O
notes: also called compound 96

Target: T1, human amylin 3(a) receptor (human …)
Test: cell-based or functional assay

In order of rising “hAmylin-R funct. EC50” value:
1. B3  0.033 nM
2. B2  0.04 nM
3. B6  0.181 nM
4. B1  0.285 nM
5. B5  0.356 nM
6. B4  0.651 nM

Target: T2, human calcitonin receptor
Test: cell-based or functional assay

In order of rising “Ratio hCT/hAmylin funct.” value:
1. B1  3.8
2. B3  7.2
3. B6  21
4. B4  33
5. B5  33
6. B2  36.9

In order of falling “hCTR funct. EC50” value:
1. B4  21.5 nM
2. B5  11.8 nM
3. B6  3.8 nM
4. B2  1.48 nM
5. B1  1.09 nM
6. B3  0.236 nM
